US20260242419A1, “A CYCLIC PEPTIDE FOR TRAPPING INTERLEUKIN-1 BETA” (Merck Sharp & Dohme LLC, priority 2023, published 2026)
Starred links: 1 amine or outer side, 2 acyl side, 3 side chain; linkers in the order of their positions; H or OH if unused. Non-standard residues stand in square brackets, D forms with d. TyrEtNAc = (2S)-3-[4-(2-acetamidoethoxy)phenyl]-2-amino-propanoic acid, CC(=O)NCCOc1ccc(C[C@H](N[*:1])C(=O)[*:2])cc1; Phe(4-(4-Ac-piperazinyl)) = CC(=O)N1CCN(c2ccc(C[C@H](N)C(=O)O)cc2)CC1; Trp(4-Cl)(βS-Me) = C[C@@H](c1c[nH]c2cccc(Cl)c12)[C@H](N)C(=O)O; dPro(4R-(4-pyridylmethyl)) = O=C(O)[C@H]1C[C@@H](Cc2ccncc2)CN1; Trp(βS-Me,4-F) = C[C@@H](c1c[nH]c2cccc(F)c12)[C@H](N)C(=O)O; Bip(4'-COOH) = N[C@@H](Cc1ccc(-c2ccc(C(=O)O)cc2)cc1)C(=O)O; Ala(1-bicyclo(1.1.1)pentyl) = N[C@@H](CC12CC(C1)C2)C(=O)O; dPro(3S-(4-F-Bn)) = O=C(O)[C@@H]1NCC[C@@H]1Cc1ccc(F)cc1; Phe(2-Cl,4-COOH) = N[C@@H](Cc1ccc(C(=O)O)cc1Cl)C(=O)O; 1Nal(3S-Me) = C[C@@H](c1cccc2ccccc12)[C@H](N)C(=O)O; Ala(pyrimidin-5-yl) = N[C@@H](Cc1cncnc1)C(=O)O; Phe(4-CONH2) = NC(=O)c1ccc(C[C@H](N)C(=O)O)cc1; Phe(4-COOH) = N[C@@H](Cc1ccc(C(=O)O)cc1)C(=O)O; Pro(cis-4-F) = O=C(O)[C@@H]1C[C@H](F)CN1; Ala(4-THP) = N[C@@H](CC1CCOCC1)C(=O)O; d(αMeD) = C[C@@](N)(CC(=O)O)C(=O)O; 4Pal = N[C@@H](Cc1ccncc1)C(=O)O; d(αMeS) = C[C@@](N)(CO)C(=O)O; Dab = NCC[C@H](N)C(=O)O; Aib = CC(C)(N)C(=O)O

B1: SEQ ID NO 371 (peptide)
peptide: cyclo([TyrEtNAc][Ala(1-bicyclo(1.1.1)pentyl)][Phe(4-COOH)]G[Pro(cis-4-F)][Trp(βS-Me,4-F)][Aib]SW[d(αMeS)][Ala(4-THP)]Q[Dab]G[dPro(3S-(4-F-Bn))])
SMILES: CC(=O)NCCOc1ccc(C[C@@H]2NC(=O)[C@H]3[C@@H](Cc4ccc(F)cc4)CCN3C(=O)CNC(=O)[C@H](CCN)NC(=O)[C@H](CCC(N)=O)NC(=O)[C@H](CC3CCOCC3)NC(=O)[C@@](C)(CO)NC(=O)[C@H](Cc3c[nH]c4ccccc34)NC(=O)[C@H](CO)NC(=O)C(C)(C)NC(=O)[C@H]([C@@H](C)c3c[nH]c4cccc(F)c34)NC(=O)[C@@H]3C[C@H](F)CN3C(=O)CNC(=O)[C@H](Cc3ccc(C(=O)O)cc3)NC(=O)[C@H](CC34CC(C3)C4)NC2=O)cc1
B2: SEQ ID NO 370 (peptide)
peptide: cyclo([TyrEtNAc][Ala(1-bicyclo(1.1.1)pentyl)][Phe(4-COOH)]G[Pro(cis-4-F)][Trp(βS-Me,4-F)][Aib]SW[d(αMeD)][Ala(4-THP)]Q[Dab]G[dPro(3S-(4-F-Bn))])
SMILES: CC(=O)NCCOc1ccc(C[C@@H]2NC(=O)[C@H]3[C@@H](Cc4ccc(F)cc4)CCN3C(=O)CNC(=O)[C@H](CCN)NC(=O)[C@H](CCC(N)=O)NC(=O)[C@H](CC3CCOCC3)NC(=O)[C@@](C)(CC(=O)O)NC(=O)[C@H](Cc3c[nH]c4ccccc34)NC(=O)[C@H](CO)NC(=O)C(C)(C)NC(=O)[C@H]([C@@H](C)c3c[nH]c4cccc(F)c34)NC(=O)[C@@H]3C[C@H](F)CN3C(=O)CNC(=O)[C@H](Cc3ccc(C(=O)O)cc3)NC(=O)[C@H](CC34CC(C3)C4)NC2=O)cc1
B3: SEQ ID NO 368 (peptide)
peptide: cyclo([TyrEtNAc][4Pal][Phe(4-COOH)]G[Pro(cis-4-F)][Trp(βS-Me,4-F)][Aib]SW[Aib][Ala(pyrimidin-5-yl)]Q[Dab]G[dPro(4R-(4-pyridylmethyl))])
SMILES: CC(=O)NCCOc1ccc(C[C@@H]2NC(=O)[C@H]3C[C@@H](Cc4ccncc4)CN3C(=O)CNC(=O)[C@H](CCN)NC(=O)[C@H](CCC(N)=O)NC(=O)[C@H](Cc3cncnc3)NC(=O)C(C)(C)NC(=O)[C@H](Cc3c[nH]c4ccccc34)NC(=O)[C@H](CO)NC(=O)C(C)(C)NC(=O)[C@H]([C@@H](C)c3c[nH]c4cccc(F)c34)NC(=O)[C@@H]3C[C@H](F)CN3C(=O)CNC(=O)[C@H](Cc3ccc(C(=O)O)cc3)NC(=O)[C@H](Cc3ccncc3)NC2=O)cc1
B4: SEQ ID NO 362 (peptide)
peptide: cyclo([TyrEtNAc][4Pal][Phe(4-COOH)]G[Pro(cis-4-F)][Trp(4-Cl)(βS-Me)][Aib]SW[d(αMeD)][Ala(4-THP)]Q[Dab]G[dPro(4R-(4-pyridylmethyl))])
SMILES: CC(=O)NCCOc1ccc(C[C@@H]2NC(=O)[C@H]3C[C@@H](Cc4ccncc4)CN3C(=O)CNC(=O)[C@H](CCN)NC(=O)[C@H](CCC(N)=O)NC(=O)[C@H](CC3CCOCC3)NC(=O)[C@@](C)(CC(=O)O)NC(=O)[C@H](Cc3c[nH]c4ccccc34)NC(=O)[C@H](CO)NC(=O)C(C)(C)NC(=O)[C@H]([C@@H](C)c3c[nH]c4cccc(Cl)c34)NC(=O)[C@@H]3C[C@H](F)CN3C(=O)CNC(=O)[C@H](Cc3ccc(C(=O)O)cc3)NC(=O)[C@H](Cc3ccncc3)NC2=O)cc1
B5: SEQ ID NO 363 (peptide)
peptide: cyclo([TyrEtNAc][4Pal][Phe(2-Cl,4-COOH)]G[Pro(cis-4-F)][1Nal(3S-Me)][Aib]SW[d(αMeD)][Ala(4-THP)]Q[Dab]G[dPro(4R-(4-pyridylmethyl))])
SMILES: CC(=O)NCCOc1ccc(C[C@@H]2NC(=O)[C@H]3C[C@@H](Cc4ccncc4)CN3C(=O)CNC(=O)[C@H](CCN)NC(=O)[C@H](CCC(N)=O)NC(=O)[C@H](CC3CCOCC3)NC(=O)[C@@](C)(CC(=O)O)NC(=O)[C@H](Cc3c[nH]c4ccccc34)NC(=O)[C@H](CO)NC(=O)C(C)(C)NC(=O)[C@H]([C@@H](C)c3cccc4ccccc34)NC(=O)[C@@H]3C[C@H](F)CN3C(=O)CNC(=O)[C@H](Cc3ccc(C(=O)O)cc3Cl)NC(=O)[C@H](Cc3ccncc3)NC2=O)cc1
B6: SEQ ID NO 372 (peptide)
peptide: cyclo([TyrEtNAc][4Pal][Phe(4-COOH)]G[Pro(cis-4-F)][Trp(βS-Me,4-F)][Aib]SW[d(αMeD)][Ala(4-THP)]Q[Dab]G[dPro(3S-(4-F-Bn))])
SMILES: CC(=O)NCCOc1ccc(C[C@@H]2NC(=O)[C@H]3[C@@H](Cc4ccc(F)cc4)CCN3C(=O)CNC(=O)[C@H](CCN)NC(=O)[C@H](CCC(N)=O)NC(=O)[C@H](CC3CCOCC3)NC(=O)[C@@](C)(CC(=O)O)NC(=O)[C@H](Cc3c[nH]c4ccccc34)NC(=O)[C@H](CO)NC(=O)C(C)(C)NC(=O)[C@H]([C@@H](C)c3c[nH]c4cccc(F)c34)NC(=O)[C@@H]3C[C@H](F)CN3C(=O)CNC(=O)[C@H](Cc3ccc(C(=O)O)cc3)NC(=O)[C@H](Cc3ccncc3)NC2=O)cc1
B7: SEQ ID NO 364 (peptide)
peptide: cyclo([Bip(4'-COOH)][4Pal][Phe(4-COOH)]G[Pro(cis-4-F)][Trp(βS-Me,4-F)][Aib]SW[d(αMeS)][Ala(4-THP)]Q[Dab]G[dPro(4R-(4-pyridylmethyl))])
SMILES: C[C@@H](c1c[nH]c2cccc(F)c12)[C@@H]1NC(=O)[C@@H]2C[C@H](F)CN2C(=O)CNC(=O)[C@H](Cc2ccc(C(=O)O)cc2)NC(=O)[C@H](Cc2ccncc2)NC(=O)[C@H](Cc2ccc(-c3ccc(C(=O)O)cc3)cc2)NC(=O)[C@H]2C[C@@H](Cc3ccncc3)CN2C(=O)CNC(=O)[C@H](CCN)NC(=O)[C@H](CCC(N)=O)NC(=O)[C@H](CC2CCOCC2)NC(=O)[C@@](C)(CO)NC(=O)[C@H](Cc2c[nH]c3ccccc23)NC(=O)[C@H](CO)NC(=O)C(C)(C)NC1=O
B8: SEQ ID NO 373 (peptide)
peptide: cyclo([TyrEtNAc][Ala(1-bicyclo(1.1.1)pentyl)][Phe(4-CONH2)]G[Pro(cis-4-F)][Trp(βS-Me,4-F)][Aib]SW[d(αMeD)][Ala(4-THP)]Q[Dab]G[dPro(3S-(4-F-Bn))])
SMILES: CC(=O)NCCOc1ccc(C[C@@H]2NC(=O)[C@H]3[C@@H](Cc4ccc(F)cc4)CCN3C(=O)CNC(=O)[C@H](CCN)NC(=O)[C@H](CCC(N)=O)NC(=O)[C@H](CC3CCOCC3)NC(=O)[C@@](C)(CC(=O)O)NC(=O)[C@H](Cc3c[nH]c4ccccc34)NC(=O)[C@H](CO)NC(=O)C(C)(C)NC(=O)[C@H]([C@@H](C)c3c[nH]c4cccc(F)c34)NC(=O)[C@@H]3C[C@H](F)CN3C(=O)CNC(=O)[C@H](Cc3ccc(C(N)=O)cc3)NC(=O)[C@H](CC34CC(C3)C4)NC2=O)cc1
B9: SEQ ID NO 369 (peptide)
peptide: cyclo([TyrEtNAc][4Pal][Phe(4-COOH)]G[Pro(cis-4-F)][Trp(βS-Me,4-F)][Aib]SW[d(αMeD)][Ala(pyrimidin-5-yl)]Q[Dab]G[dPro(3S-(4-F-Bn))])
SMILES: CC(=O)NCCOc1ccc(C[C@@H]2NC(=O)[C@H]3[C@@H](Cc4ccc(F)cc4)CCN3C(=O)CNC(=O)[C@H](CCN)NC(=O)[C@H](CCC(N)=O)NC(=O)[C@H](Cc3cncnc3)NC(=O)[C@@](C)(CC(=O)O)NC(=O)[C@H](Cc3c[nH]c4ccccc34)NC(=O)[C@H](CO)NC(=O)C(C)(C)NC(=O)[C@H]([C@@H](C)c3c[nH]c4cccc(F)c34)NC(=O)[C@@H]3C[C@H](F)CN3C(=O)CNC(=O)[C@H](Cc3ccc(C(=O)O)cc3)NC(=O)[C@H](Cc3ccncc3)NC2=O)cc1
B10: SEQ ID NO 366 (peptide)
peptide: cyclo([Phe(4-(4-Ac-piperazinyl))][4Pal][Phe(4-COOH)]G[Pro(cis-4-F)][Trp(βS-Me,4-F)][Aib]SW[Aib][Ala(pyrimidin-5-yl)]Q[Dab]G[dPro(4R-(4-pyridylmethyl))])
SMILES: CC(=O)N1CCN(c2ccc(C[C@@H]3NC(=O)[C@H]4C[C@@H](Cc5ccncc5)CN4C(=O)CNC(=O)[C@H](CCN)NC(=O)[C@H](CCC(N)=O)NC(=O)[C@H](Cc4cncnc4)NC(=O)C(C)(C)NC(=O)[C@H](Cc4c[nH]c5ccccc45)NC(=O)[C@H](CO)NC(=O)C(C)(C)NC(=O)[C@H]([C@@H](C)c4c[nH]c5cccc(F)c45)NC(=O)[C@@H]4C[C@H](F)CN4C(=O)CNC(=O)[C@H](Cc4ccc(C(=O)O)cc4)NC(=O)[C@H](Cc4ccncc4)NC3=O)cc2)CC1
B11: SEQ ID NO 365 (peptide)
peptide: cyclo([Phe(4-(4-Ac-piperazinyl))][4Pal][Phe(2-Cl,4-COOH)]G[Pro(cis-4-F)][Trp(βS-Me,4-F)][Aib]SW[Aib][Ala(pyrimidin-5-yl)]Q[Dab]G[dPro(4R-(4-pyridylmethyl))])
SMILES: CC(=O)N1CCN(c2ccc(C[C@@H]3NC(=O)[C@H]4C[C@@H](Cc5ccncc5)CN4C(=O)CNC(=O)[C@H](CCN)NC(=O)[C@H](CCC(N)=O)NC(=O)[C@H](Cc4cncnc4)NC(=O)C(C)(C)NC(=O)[C@H](Cc4c[nH]c5ccccc45)NC(=O)[C@H](CO)NC(=O)C(C)(C)NC(=O)[C@H]([C@@H](C)c4c[nH]c5cccc(F)c45)NC(=O)[C@@H]4C[C@H](F)CN4C(=O)CNC(=O)[C@H](Cc4ccc(C(=O)O)cc4Cl)NC(=O)[C@H](Cc4ccncc4)NC3=O)cc2)CC1

Biological target: Recombinant human IL-1β (BioLegend 579404) (human, UniProt P01584 117-269)
Assay: cell-based or functional assay

MRC5 IC50 [pM] | Binder
14 | B1
17 | cyclo([TyrEtNAc][4Pal][Phe2Cl4COOH]G[Pro(cis-4-F)][Trp(βS-Me,4-F)][Aib]SW[Aib][Ala(pyrimidin-5-yl)]Q[Dab]G[dPro(4R-(4-pyridylmethyl))]) [SEQ ID NO 367]
15 | B2
22 | B3
23 | B4
21 | B5
9 | B6
15 | B7
12 | B8
21 | B9
21 | B10
23 | B11
